Results as given in patent publication US8715736B2, “Nanoparticle formulations for skin delivery” (Florida Agricultural and Mechanical University, priority 2009, dated 2014).
≈ marks a conversion by molar mass, not a printed value. Where no end group is shown, it is not given here.

How the values were obtained:
Solubility of CXB = type: physicochemical
[1] = Iso-electric point of CPP peptides (Table 1); type: physicochemical
Excerpt: Celecoxib (CXB) was provided by Pfizer (Skokie, Ill.). The triglyceride Miglyol 812 was obtained from Sasol Germany GmbH (Witten, Germany) and Compritol 888 ATO was provided by Gattefosse (Saint Priest, France). The phospholipids 1-palmitoyl-2-oleoyl-phosphatidylcholine (POPC), 1,2-dioleoyl-sn-glycero-3-phosphoethanolamine (DOPE) and 1,2-di-(9Z-octadecenoyl)-sn-glycero-3-[(N-(5-amino-1-carboxypentyl)iminodiacetic acid)succinyl] (nickel salt) (DOGS-NTA-Ni) were purchased from Avanti Polar Lipids (USA). Cholesterol, Tween 80, pH 7.4 phosphate buffer saline (PBS), paraformaldehyde, tetrahydrofuran (THF), trifluoro acetic acid (TFA), and dialysis membranes (molecular weight cut off 12,400 daltons and flat width of 23 mm) were procured from Sigma-Aldrich Chemicals (St. Louis, USA). Polyoxyethylene-20 oleyl ether or Volpo-20 (Oleth-20) was a kind gift from Croda Inc (New Jersey, USA). Vivaspin centrifuge filters (molecular weight cut off 10,000 Daltons) was procured from Sartorius Ltd, (Stonehouse, UK). All other chemicals used herein were of analytical grade. All of the CPP peptides were synthesized by GenScript Corporation (NJ, USA). Sce Table 1 below for details of the composition, molecular weight and iso-electric points of the CPPs. Fluorescent Isothiocyanate (FITC), DID-oil and DIO fluorescent dyes were procured from Invitrogen (USA).

Compound | solubility (Solubility of CXB; 0.1% w/v Volpo 20 in pH 7.4 PBS, aqueous with cosolvent or surfactant or cyclodextrin, in 0.1% Volpo 20 (receptor fluid, pH 7.4 PBS), read-out: saturation solubility) [µg/mL] | solubility in water (Solubility of CXB; water) | Iso-electric point [1]
Cc1ccc(-c2cc(C(F)(F)F)nn2-c2ccc(S(N)(=O)=O)cc2)cc1 [CXB, Celecoxib] | 30 (≈ 78.7 µM) | insoluble in water | 
RRRRRRRRHHHHHH (synthetically generated peptide) [R8] |  |  | 13.2
RRRRRRRRRRRHHHHHH (synthetically generated peptide) [R11] |  |  | 13.4
RRRRRRRRRRRRRRRHHHHHH (synthetically generated peptide) [R15] |  |  | 13.5
YGRKKRRQRRRHHHHHH [TAT] |  |  | 12.7
YKALRISRKLAKHHHHHH (syntheticall generated peptide) [reference compound] |  |  | 11.6
